In article PMC8086355, “The unusual structure of the PiggyMac cysteine-rich domain reveals zinc finger diversity in PiggyBac-related transposases”:
Values belong to the molecule of their own block, whether it stands above or below them.

Legend:
[1] = biological target: Pgm(692–768)* (Paramecium tetraurelia); test: NMR titration; 100 μM 15N-Pgm(692–768)* titrated with 50 to 1000 μM H3(1–19), 1H-15N HSQC at 800 MHz, 5 mM HEPES pH 6.8, 25 mM NaCl, 20 °C; apparent KD from the chemical shift perturbations of E739, assuming 1:1 binding; 1H-1H TOCSY on the final titration point
[2] = biological target: H3(1–19)K4me3-b (Paramecium tetraurelia); test: ELISA; C-terminally biotinylated peptides (4 μM) on streptavidin-coated plates; purified MBP or MBP-CRD fusions (10 to ~100 nM) in buffer C (25 mM Tris pH 7.4, 150 mM NaCl, 0.1% BSA, 0.05% Tween 20), 4 °C overnight; anti-MBP-HRP, absorbance at 450 nm
Pgm(692-768)* CRD = biological target: T1, Pgm(692-768)* CRD (Paramecium tetraurelia, UniProt A0DFJ7 692-768); test: NMR (1H-1H NOESY); equimolar DNA; 2 Zn2+ in protein; DRaCALA: 25 mM HEPES pH 7.5, 0.1 mg/ml BSA, 0.5 mM DTT, 100 mM NaCl, 25 nM DNA, no competitor, temperature not stated; EMSA: as in earlier paper, 5% acrylamide; settings: protein: recombinant; tags: GST cleaved by PreScission; seven linker residues left at N-terminus; blunt
T1 sequence: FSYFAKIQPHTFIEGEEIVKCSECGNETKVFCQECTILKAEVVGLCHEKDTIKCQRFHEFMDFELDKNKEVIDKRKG

MBP-Pgm = biological target: T2, MBP-Pgm (Paramecium tetraurelia, UniProt A0DFJ7 1-1065); test: DRaCALA; 400 nM protein; DRaCALA: 25 mM HEPES pH 7.5, 0.1 mg/ml BSA, 0.5 mM DTT, 100 mM NaCl, 25 nM DNA, no competitor, temperature not stated; EMSA: as in earlier paper, 5% acrylamide; settings: protein: recombinant; tags: N-terminal MBP; label: 32P at 5' end of top strand
T2 sequence: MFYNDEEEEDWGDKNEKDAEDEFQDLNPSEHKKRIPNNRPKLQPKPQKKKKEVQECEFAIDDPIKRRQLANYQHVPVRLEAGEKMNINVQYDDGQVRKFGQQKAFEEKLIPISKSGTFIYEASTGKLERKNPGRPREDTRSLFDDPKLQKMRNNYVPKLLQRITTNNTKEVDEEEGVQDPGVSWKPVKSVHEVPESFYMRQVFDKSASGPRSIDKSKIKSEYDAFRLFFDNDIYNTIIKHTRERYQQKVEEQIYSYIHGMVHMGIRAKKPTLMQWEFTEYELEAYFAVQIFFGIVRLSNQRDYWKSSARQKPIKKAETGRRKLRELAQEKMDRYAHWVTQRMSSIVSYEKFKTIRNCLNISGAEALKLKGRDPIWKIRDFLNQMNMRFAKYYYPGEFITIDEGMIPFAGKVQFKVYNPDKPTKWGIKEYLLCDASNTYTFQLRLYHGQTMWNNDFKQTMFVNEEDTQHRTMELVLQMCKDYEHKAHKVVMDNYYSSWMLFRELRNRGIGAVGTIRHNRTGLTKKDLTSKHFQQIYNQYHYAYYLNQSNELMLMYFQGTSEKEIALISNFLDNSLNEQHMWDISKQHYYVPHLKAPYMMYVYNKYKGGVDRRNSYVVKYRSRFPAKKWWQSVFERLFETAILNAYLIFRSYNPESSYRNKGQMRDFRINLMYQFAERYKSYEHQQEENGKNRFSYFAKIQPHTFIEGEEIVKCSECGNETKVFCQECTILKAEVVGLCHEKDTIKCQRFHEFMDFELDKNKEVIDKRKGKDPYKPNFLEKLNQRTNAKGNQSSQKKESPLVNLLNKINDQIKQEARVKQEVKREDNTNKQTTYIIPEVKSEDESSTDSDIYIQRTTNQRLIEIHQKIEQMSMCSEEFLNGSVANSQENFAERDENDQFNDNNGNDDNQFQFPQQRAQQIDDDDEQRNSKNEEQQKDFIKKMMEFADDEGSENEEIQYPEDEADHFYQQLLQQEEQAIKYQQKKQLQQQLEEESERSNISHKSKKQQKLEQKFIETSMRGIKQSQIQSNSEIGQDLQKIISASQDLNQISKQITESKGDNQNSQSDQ

GST-Pgm(692-768) CRD [3] = biological target: T3, GST-Pgm(692-768) CRD (Paramecium tetraurelia, UniProt A0DFJ7 692-768); test: DRaCALA; no competitor DNA; DRaCALA: 25 mM HEPES pH 7.5, 0.1 mg/ml BSA, 0.5 mM DTT, 100 mM NaCl, 25 nM DNA, no competitor, temperature not stated; EMSA: as in earlier paper, 5% acrylamide; settings: protein: recombinant; tags: N-terminal GST; label: 32P at 5' end of top strand
T3 sequence: T1 sequence

GST-Pgm(692-768) CRD [4] = biological target: T3, GST-Pgm(692-768) CRD; test: EMSA; DRaCALA: 25 mM HEPES pH 7.5, 0.1 mg/ml BSA, 0.5 mM DTT, 100 mM NaCl, 25 nM DNA, no competitor, temperature not stated; EMSA: as in earlier paper, 5% acrylamide; settings: protein: recombinant; tags: N-terminal GST; label: 32P

Kd [1]: 289 µM
Molecule: H3(1–19) (peptide)

reduction of the ELISA interaction signal relative to unmodified H3(1–19) [2]: 30%
Molecule: MBP-Pgm(692–768) (domain or fragment)

B1: i1835 (NMR) (dsDNA)
DNA 1: CTACTACATAATGCTAAACTCATTTATAGATGGATTGTTTTCCAAGTATCTATATC
DNA 2: GATATAGATACTTGGAAAACAATCCATCTATAAATGAGTTTAGCATTATGTAGTAG
binding result (Pgm(692-768)* CRD): no binding

B2: IES 51A1835 80-bp substrate (dsDNA)
DNA 1: ACTACTACATAATGCTAAACTCATTTATAGATGGATTGTTTTCCAAGTATCTATATCATCATGTGTTGCTAATAACCCTG
DNA 2: ATCGCAGGGTTATTAGCAACACATGATGATATAGATACTTGGAAAACAATCCATCTATAAATGAGTTTAGCATTATGTAGT
binding result (MBP-Pgm): binds
binding result (GST-Pgm(692-768) CRD [3]): no binding

B3: IES 51A4404 left end 70-bp substrate (dsDNA)
DNA 1: CTAGCTTACAACGCAGCTTGCACATCTCTAGTTGATGGTATTGTGGTGTTATTTTAAAAAGTAATATATT
DNA 2: CGATAATATATTACTTTTTAAAATAACACCACAATACCATCAACTAGAGATGTGCAAGCTGCGTTGTAAG
binding result (GST-Pgm(692-768) CRD [4]): no binding

B4: i4404 (NMR) (dsDNA)
DNA 1: GCTTGCACATCTCTAGTTGATGG
DNA 2: CCATCAACTAGAGATGTGCAAGC
binding result (Pgm(692-768)* CRD): no binding
